Results on two molecules are retold here after publication PMC3946203, “Specificity of ε and Non-ε Isoforms of Arabidopsis 14-3-3 Proteins Towards the H^+-ATPase and Other Targets” (PLoS ONE, 2014).

B1: bL15Vp peptide (peptide)
peptide: Biotin-LKGLDIDTIQQNY[pT]V
notes: last 15 amino acids of the maize plasma membrane H+-ATPase isoform 2 (MHA2); also called phosphorylated biotinyl-peptide reproducing the last 15 residues of the MHA2 H+-ATPase; source: synthetic peptide (Neosystem, Strasbourg)
B2: GF14εN211G (natural protein, Arabidopsis, UniProt P48347 1-254, looked up)
chain: MENEREKQVYLAKLSEQTERYDEMVEAMKKVAQLDVELTVEERNLVSVGYKNVIGARRASWRILSSIEQKEESKGNDENVKRLKNYRKRVEDELAKVCNDILSVIDKHLIPSSNAVESTVFFYKMKGDYYRYLAEFSSGAERKEAADQSLEAYKAAVAAAENGLAPTHPVRLGLALNFSVFYYEILNSPESACQLAKQAFDDAIAELDSLGEESYKDSTLIMQLLRDNLTLWTSDLNEEGDERTKGADEPQDEN
modifications: 32P-phosphate on the phosphorylation site at the junction between GST and the cloned protein (bead binding assay)
notes: GF14 epsilon, Arabidopsis, At1g22300, Asn211 changed into Gly; also called GF14ε loop 8 mutant; source: E. coli BL21(DE3), GST fusion (pGEX-2TK)

Settings in all cases: both partners purified
The experiment “GF14εN211G” has as its target B2. Put plainly: pull-down; bL15Vp on streptavidin-agarose magnetic beads; 0.1 nmol 32P-labeled GF14 wild type or loop 8 mutant in buffer HT without Mg2+; FC not told for this experiment.
A further experiment addresses T1, GF14ωG213N (Arabidopsis, UniProt Q01525 1-259, G213N, 32P-phosphate on the phosphorylation site at the junction between GST and the cloned protein (bead binding assay)).
T1 construct: GF14 omega, Arabidopsis, At1g78300, Gly213 changed into Asn; also called GF14ω loop 8 mutant; source: E. coli BL21(DE3), GST fusion (pGEX-2TK)
T1 sequence (looked up): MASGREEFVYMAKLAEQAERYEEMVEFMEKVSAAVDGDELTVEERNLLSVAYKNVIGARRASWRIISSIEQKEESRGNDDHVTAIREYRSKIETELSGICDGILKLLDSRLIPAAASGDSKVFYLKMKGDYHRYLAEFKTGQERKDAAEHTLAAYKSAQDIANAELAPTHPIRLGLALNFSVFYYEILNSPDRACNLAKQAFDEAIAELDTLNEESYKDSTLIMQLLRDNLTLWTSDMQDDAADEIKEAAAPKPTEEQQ
In words: pull-down; bL15Vp on streptavidin-agarose magnetic beads; 0.1 nmol 32P-labeled GF14 wild type or loop 8 mutant in buffer HT with 5 mM Mg2+; FC not told for this experiment.

Another experiment has as its target T2, GF14χ (Arabidopsis, UniProt P42643 1-267, 32P-phosphate on the phosphorylation site at the junction between GST and the cloned protein (overlay and bead binding assays)).
T2 construct: 14-3-3 protein GF14 chi, Arabidopsis, At4g09000; cDNA by RT-PCR with primers corresponding to the coding region; also called GF14 chi; GST-GF14χ
T2 sequence (looked up): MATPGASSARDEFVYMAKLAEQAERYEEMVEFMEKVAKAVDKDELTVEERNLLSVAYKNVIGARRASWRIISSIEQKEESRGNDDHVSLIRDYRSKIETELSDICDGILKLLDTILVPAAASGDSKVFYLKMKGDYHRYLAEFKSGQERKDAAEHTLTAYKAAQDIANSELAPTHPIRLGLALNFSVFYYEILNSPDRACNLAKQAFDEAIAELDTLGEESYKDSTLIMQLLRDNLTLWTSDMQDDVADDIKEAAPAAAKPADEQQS
In words: pull-down; 0.05 nmol bL15Vp on streptavidin-agarose magnetic beads; 0.1 nmol 32P-labeled GF14 in 50 µl buffer HT, 60 min, room temperature; without FC; bound radioactivity counted.

A further experiment concerns the target T3, GF14κ (Arabidopsis, UniProt P48348 1-248, 32P-phosphate on the phosphorylation site at the junction between GST and the cloned protein (overlay and bead binding assays)).
T3 construct: 14-3-3 protein GF14 kappa, Arabidopsis, At5g65430; cDNA by RT-PCR with primers corresponding to the coding region; also called GF14 kappa; GST-GF14κ
T3 sequence (looked up): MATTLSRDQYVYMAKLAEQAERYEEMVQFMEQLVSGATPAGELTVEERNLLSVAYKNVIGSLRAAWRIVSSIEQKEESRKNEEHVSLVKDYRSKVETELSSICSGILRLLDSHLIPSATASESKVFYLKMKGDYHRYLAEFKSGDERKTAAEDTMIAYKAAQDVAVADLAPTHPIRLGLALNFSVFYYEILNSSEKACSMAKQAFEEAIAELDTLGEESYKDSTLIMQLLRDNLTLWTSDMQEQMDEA
The description is as above.

The target of a further experiment is T4, GF14λ (Arabidopsis, UniProt P48349 1-248, 32P-phosphate on the phosphorylation site at the junction between GST and the cloned protein (overlay and bead binding assays)).
T4 construct: 14-3-3 protein GF14 lambda, Arabidopsis, At5g10450; cDNA by RT-PCR with primers corresponding to the coding region; also called GF14 lambda; GST-GF14λ
T4 sequence (looked up): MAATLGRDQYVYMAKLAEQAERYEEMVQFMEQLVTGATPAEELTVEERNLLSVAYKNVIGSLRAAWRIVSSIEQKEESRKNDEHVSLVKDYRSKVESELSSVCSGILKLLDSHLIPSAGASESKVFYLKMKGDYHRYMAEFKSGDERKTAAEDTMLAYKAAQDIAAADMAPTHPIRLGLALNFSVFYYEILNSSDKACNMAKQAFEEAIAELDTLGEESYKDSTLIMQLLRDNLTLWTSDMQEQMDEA
Described as above.

The target in the experiment “bL15Vp peptide” is B1. Put plainly: pull-down; bL15Vp on streptavidin-agarose magnetic beads; 0.1 nmol 32P-labeled GF14 wild type or loop 8 mutant in buffer HT with 5 mM Mg2+; FC not told for this experiment.

Where no end group is shown, it is not given here. [ ]: non-standard residue; d: D form. The star is where a group is joined. Biotin = O=C1N[C@H]2[C@H](CS[C@H]2CCCCC(=O)*)N1; pT = C[C@@H](OP(=O)(O)O)[C@H](N)C(=O)O

For B1, the binding result in the experiment with GF14εN211G, with GF14ωG213N, in the experiment with GF14χ, with GF14κ and with GF14λ was “binds” in each case.
Regarding B2, the “fold more protein bound with 5 mM Mg2+ (reference not clear: wild type GF14ε or the mutant without Mg2+)” value with bL15Vp peptide is more than 5 fold.
